{"source": "the nanobody polyreactivity screen of Harvey et al. (2022)"}
{"assay": "yeast display, Sf9 membrane polyspecificity reagent, FACS + sequencing; frameworks hold sequencing errors", "how_it_was_run": "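Genes from sorted yeast were amplified by colony PCR, read by MiSeq 2 × 250 sequencing and filtered on CDR length. These cells carried a synthetic nanobody library in Saccharomyces cerevisiae BJ5465 and were sorted by FACS into low and high (top ~1%) gates on anti-HA and streptavidin fluorescence. Polyreactivity is labelled according to the gate of origin.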"}
{"sequence": "QVQLVESGGGLVQAGGSLRLSCAASGSIFVQYAMGWCRQAPGKDRELVAAISDSGGSTYYADSVKGRFTISRDNAKNTVYVQMNSLKPEDTAVYYCAAVSTNSYSHRFGWGQGTQVTVSS", "polyreactivity (PSR sort gate)": "low polyreactivity"}
{"sequence": "QVQLQESGGGLVQAGGSLRLSCAASGTIFWLWAMGWYCPAPGKERELVASISSGGTTYHADSVKGRFTISRDNAKNTVYLQMNSLKPEDTAVYYSAAFYVATAKLGYWGQGSQVTVSS", "polyreactivity (PSR sort gate)": "low polyreactivity"}
{"sequence": "QVQHVESGGGLVQAGGSLRLSCAASGFIFTANAMGWYRQAPGKERELVAGIRSGSSTYYADSVKGRFTISRDNAKNTVYLQLNSLKPEDTAVYYCNAEKFNFIYAYEYWGKGTQVTVSS", "polyreactivity (PSR sort gate)": "low polyreactivity"}
{"sequence": "QVQLVESGGGLHQAGGSLRLSCAASGSTYASNARGWYRQAPGKETELVAAITSRDASTYYADSVKGRFTISRDYAKNTVYLQMNRLKPEDTAVYYCATDGYSPAAFDYWGQGTQVTVSS", "polyreactivity (PSR sort gate)": "low polyreactivity"}
{"sequence": "QVQLVESGGGIVQAGGSLRLSCAASGSIFRRNALGWYRQAPGKERELVAAISSIGSSTYYADSVKGRFTISRENAKNTVYFQMNSLKPEDTAVYYCAAVFYYATYSKKFEYWGQGTQVTVSS", "polyreactivity (PSR sort gate)": "high polyreactivity"}
{"sequence": "QVQLVESGGGLVQAGGSLRLSCAATGSPFILYALGWYRQAPGKERALVAAITTSGGSTYYADSVKGRFTISRDNAKNTVYLQMNSLKPEDTAVYYCNADWGWRYSSDFDYWGQGTQVTVSS", "polyreactivity (PSR sort gate)": "low polyreactivity"}
{"sequence": "QVQLVESGGGLVQAGGSLRLSCAASGRTIWWYAMGWYRQAPGKERELVADITWIGGSTYYADSVKGRFTISRDNAKNTVYLQMNSLKPEDTAVYYCATDKDDVSDLGKDYAYFEYDYWGQGTQVTVSS", "polyreactivity (PSR sort gate)": "low polyreactivity"}
{"sequence": "QVQLVESGGGLVQAGGSLRLSCAASGSTFVRNAMGWYRQAPGKERELVAGITFGGGSTYYADSVKGRFTISRDIAKNTVYLQMNSLKPEDTAVYYCAADLSYRGATRGDYYWGQGTQVTVSS", "polyreactivity (PSR sort gate)": "low polyreactivity"}
{"sequence": "QVQLVESGGGLVQAGGSLRLSCAASGRTFSYYAMGWYRQAPGKERELVATIRFSGGGTYYADSVKGRFTISRDNAKNTVYLQMNSLKPEDTAVYYCNADSIDPFLYDYWGQGTQVTVSS", "polyreactivity (PSR sort gate)": "low polyreactivity"}
{"sequence": "QVQLVESGGGLVQAGGSLRLSCAASGRIFGSYAMGWYRQAPWKERELVAAINWRGGSTFYADSVKGRFTISRDNAKNTVYLLMNSLKPEDTAVYYCARSGYRQSGDYWGQGTQVTVSS", "polyreactivity (PSR sort gate)": "low polyreactivity"}
{"sequence": "QVHLVESGGGLVQAGGSLRLTCAASGSIFSYAMGWYRQAPGKESELVAAISSGGGRTYYADSVKGRFTISRDNAKNTVYLQMNRLKPEDTAVYFCAAVGLPQGRYGYWGQGTQVTLSS", "polyreactivity (PSR sort gate)": "high polyreactivity"}
{"sequence": "QVQLVESGGGLVQAGGSLRLSCAASGFTFGRYTMGWYRQAPGKERELVAAISWSGGSTYYADSVKGRFTISRDNAKNTVYLQMNSLKPEDTAVYYCAKVFRGGRGDYWGQGTQVTVSS", "polyreactivity (PSR sort gate)": "high polyreactivity"}
{"sequence": "QVQLVESGGGLVQAGGSLRLSCAASGSIFYVYAMGWYRQAPGKERELVADITTRDGDTYYADSVKGRFTISRDNAKNTVYLQMNSLKPVDTAVYYCAADLNAYPQRAYDYWGQGTQLTVSS", "polyreactivity (PSR sort gate)": "low polyreactivity"}
{"sequence": "QVQLVESGGGLVQAGGSLRLSCAASGFIFSQYARGWYRQAPGKERELVAAISYSGGSTYYADSVKGRFTISRDNAKNTVYLQMNSLKPEDTAVYYCAVSGRSYYRSDYWGQGTQVTVSS", "polyreactivity (PSR sort gate)": "high polyreactivity"}
{"sequence": "QVQLVDSGGGLVHAGGSLRLSCHASGRTFRGNAMGWYRQAPGKESELVAAITRRTASTYYADSVKGRFTISRDNAKNTVYLQMNSLKPEDTAVYDCAADSYMKRPYYAGYYYWGQGTQVTVSS", "polyreactivity (PSR sort gate)": "high polyreactivity"}
{"sequence": "QVQLVESGGGLVQAGGSLRLSCAASGFIFYRNTMGWYRQAPGKERELVAAISVSGGSTNYADSVKGRFTISRDNAKNTVYLQMNSLKPEDTAVYYCAARVRDSLVYGGWDDYWGQGTQVTVSS", "polyreactivity (PSR sort gate)": "high polyreactivity"}
{"sequence": "QVQLVESGGGLVQAGGSLRLSCAASGIIFFDYAMGWYRQAPGKDRELVAAISSGGGNTYYADSVKGRFTISRDNAKNTVYLQMNSLKPEDSAVYYCAAEPYIYGEQGAYDYWGQGTQVTVSS", "polyreactivity (PSR sort gate)": "low polyreactivity"}
{"sequence": "QVQLVESGGGLVQAGGSLRLSCAASGLTFYKNAMGWYRQPPGKERELGAVISSSGGSTYYADSVKGRFTISRDNAKNTVYLQMKSLKPEDTAVYYSARDLYTEYRWGRLTYDYWGQGTQVTVSS", "polyreactivity (PSR sort gate)": "low polyreactivity"}
{"sequence": "QVQLVESGGGLVQAGGSLPLSCAASGLTIFVNAMGWYRQAPGKERELVATISGGGSTYYADSVKGRFTISRDNAKNTVYLQMNSLKREDTAVYYCNAADVGGPWWYPYTYNYWGQGTQVTVSS", "polyreactivity (PSR sort gate)": "low polyreactivity"}
{"sequence": "QVQLVESGGGLVQAGGSLRLSCAASGLIFARNAMGWYRQAPGKERELVAAISRSGSTNYADSVKGRFTISRDNAKNTVYLQMNSLIPEDTAVYYCAAGPWGTGHYVQGPVYYYRYDYWGQGTQVTVSS", "polyreactivity (PSR sort gate)": "low polyreactivity"}
{"sequence": "QVQLVESGGGLVQAGGSLRLSCAASGRTLVLYAMGWYRQAPGKERELVAAITWSGDSTYYADSVKGRFTISRDNAKNTVYLQMNSLKPEDTAVYYCAATYLNAKRGLRYDYWGQDTQVTVSS", "polyreactivity (PSR sort gate)": "low polyreactivity"}
{"sequence": "QVQLVESGGGLVQAGGSLRLSCAASGRTFGGNAMGWYRQAPGKERELVAAISSGGSTNYADSVKGRFTISRDNAKNTVYLQMNSLKPEDTAVYYCAAGWYWWARYDYWGQGTQVTVSS", "polyreactivity (PSR sort gate)": "low polyreactivity"}
{"sequence": "QVQLVESGGGLVQAGGSLRLSCAASGLIFGFYAMGWYRQAPGKERELVAAINSGGITYYADSVKGRFTISRDNAKNTVYFQMNSLKPEDTAVYYCNKDSHISTAYDYWGQGTQVTVSS", "polyreactivity (PSR sort gate)": "low polyreactivity"}
{"sequence": "QVQLGESGGGLVQAGGSLRLSCAASGSIFTFNTMGRYRQAPGKERELVATISSGGRTSYADSVKGRFTISRDNAKNTVYLQMNSLKPADTAVYYCNKGYYGYTYVESNYWGLGTQVTVSS", "polyreactivity (PSR sort gate)": "low polyreactivity"}
{"sequence": "QVQLVESGGGLVQAGGSLRLSCAASGSTFIWYDMGWYRQAPGKERELVATIDGNDGSTYYADSVKGRFTISRDNAKNTVYLQMNSLKPEDTAVYYCAKRSTGRLQSYNYWGQGTQVTVSS", "polyreactivity (PSR sort gate)": "low polyreactivity"}
{"sequence": "QVQLVESGGGLVQAGGSLRLSCAASGITSSTYAMGWYRQAPGKERELVAAISLSGSSTNYADSVKGRFTISRDNAKNTVYLQMNSLKPEDTAVYYCAATNYRTYPYGYWGQGTQVTVSS", "polyreactivity (PSR sort gate)": "high polyreactivity"}
{"sequence": "QVQLVESGGGLVQAGGSLRLSCAASGSIFRSYAMGWYRQAPGKEREFVAAISNGGRTSYADSVKGRFTISRDNAKYNVYLQMNSLKPEDTAVYDCNARYSRRAMGYWGQGTQVTVSS", "polyreactivity (PSR sort gate)": "high polyreactivity"}
{"sequence": "QVQLVESGGGLVQAGGSLRLSCAASGSTFPLYAMGLYRQAPGKERELVAAITGGGGRTYYADSVKGRFTISRDIAKNTVYLQMNSLKPEYTAVYYCNAVVYLTNYWYDYWAQGTQVTVSS", "polyreactivity (PSR sort gate)": "low polyreactivity"}
{"sequence": "QVQLVESGGGLVQAGGSLRLSCAASGIIFYPYAMGWYRQAPGKERELVAAISIGGGSTYYADSVKGRFTISRDYAKNTVYLQMNSLKPEDTAVYYFAAGTPYGILGFYYWGQGTQVTVSS", "polyreactivity (PSR sort gate)": "low polyreactivity"}
{"sequence": "QDQLVESGGGLVQAGGSLRLSCAASGFTFQYYAMGWYRQAPGKERELVAAISRRGGRTDYADSVKGRFTISRDNAKNTVYLQINSLKPEDTEVYYCARDPGAFEYSGQGTQVTVSS", "polyreactivity (PSR sort gate)": "high polyreactivity"}
{"sequence": "QVQLVESGGGLVQAGGSLRLSCAASGLIFDYYAMGWYRQAPGKERELVAAITSSSGITYYADSVKGRFTISRDNAKNTVYLQMNSLKPEDTAVYYCAAYTTYKLYEYDYWGQGTQVTVSS", "polyreactivity (PSR sort gate)": "low polyreactivity"}
{"sequence": "QVQLVESGGGLVQAGGSLRLSCAASGYTFFYMGSYRQAPGKEREFVAVITYSGGSTYYADSVKGRFTISRDNAKNTVYLQLNSLKPEDTAVYYCAAAVWHYGRPGYLDSGYDYWGQGTQVTVSS", "polyreactivity (PSR sort gate)": "low polyreactivity"}
{"sequence": "QLQLVESGGGLVQAGGRLRLSCAASGRTFYDYAMGWYRQSPGKERELVAAIDNGGSTYYADSVKGRFTISRDNAKNTVYLQKNSLKPEDTAVYYCNADGATVWSLEYCGQGTQVTVSS", "polyreactivity (PSR sort gate)": "low polyreactivity"}
{"sequence": "QVQLVDSGGGSVQAGGSLRLSCAASGSTFYENAMGWYREAPGKETELVAASTWSGGRTYYADSVKGRFTISRDNAKNTVYLQMYSLKPEDTAVYYCNARARSRKFYYWGQGTQVTVSS", "polyreactivity (PSR sort gate)": "high polyreactivity"}
{"sequence": "QVELVESGGGLVQAGGSLRLSCAASGITFYVYTMGWYRQAPGKERELVAAINGSGGSTNYADSVKGRFTISRDIAKNTVFLQMNSLKPEDSAVYYCAADWSLRLYDYWGQGTQVTVSS", "polyreactivity (PSR sort gate)": "low polyreactivity"}
{"sequence": "QVQLVESGGGLVQAGGSLRLSCAASGIIFGGYDMGWYRQAPGKERELVAAISWSGGSTYYADSVKGRFTISRDNAKNTVYLQMNSLKPEDTAVYYCAAAYYAPSRDYYYWGQGTQVTVSS", "polyreactivity (PSR sort gate)": "low polyreactivity"}
{"sequence": "QVQLVESGGGLVQAGGSLRLTCAASGRTFKFNAMGWDRQAPGKERELVAGITWTGSTTSYADSVKGRFTISRDNAKNTVYLQMNSLKPEDTSVYYCAADKIRFWYHGFYYRGQGTQVTVSS", "polyreactivity (PSR sort gate)": "low polyreactivity"}
{"sequence": "QVQLVESGGGLVQAGGSLRLSCAASGSIFKKYAMGWYRQAPGKERELVAAISSTGGSTKYADSVKGRFTISRDNAKNTVYLQMNSLKPEDTAVYYCNAPGLRDYDAEYDYWGQGTQVTVSS", "polyreactivity (PSR sort gate)": "high polyreactivity"}
{"sequence": "QVQLVESGGGLVQVGGSLRLSCAASGGIFSGNAMGWYRQAPGKERELVAGITNCGRTSYADSVKGRFTISRDNAKNTDYFQMNSLKPEDTAVYYCNAKVGAYLNYGYWGQGTQVTVSS", "polyreactivity (PSR sort gate)": "low polyreactivity"}
{"sequence": "QVQLVESGGGLVQAGGSLRLSCAASGRIFRHNPMGWYRQAPGKERELVAAITSRGGTYYADSVKGRFTISRDNAKNTVYFQMNSVKPEDTAVYYCAADRPIYPYPGKGFRYDYWGQGTQVTVSS", "polyreactivity (PSR sort gate)": "low polyreactivity"}
{"sequence": "QVQLVESGGGIVQAGGSLRLSCAASARIFGYNAMGWYRQAPGKERELVADITGSGGSTYYADSVKGRFTISRDNAKNTVYLQMNSLKPEDTAVYYCATPYAVYHVEYGYWGQGTQVTVSS", "polyreactivity (PSR sort gate)": "low polyreactivity"}
{"sequence": "QVQLVESGGGLVQAGGSLRLSCAASGFTFEYYTMGWYRQAPGTERELVAAITKRGGSTYYADSVKGRFTISRDNAKNTVYLQMNSLKPEDTAVYYCAVRKPYSRYTVNYDSWGQGTQVTVSS", "polyreactivity (PSR sort gate)": "high polyreactivity"}
{"sequence": "QVQLQESGGDLEQAGGSLRLSCTAIGTISDVRFMGWYRQAPGKERELVATISYVTITYYADSVKGRFTISRDSEKHRVSAHDEPETGRYRGVLLRYYWGLGTQVTVSS", "polyreactivity (PSR sort gate)": "low polyreactivity"}
